This is an account of results in patent US20110038894A1.

This assay deals with human HLA-A24 and β2-microglobulin (human). The assay can be described thus: MHC-peptide complex formation assay with human HLA-A24 and β2m (procedures of Example 1), sandwich ELISA, relative to positive control peptide.
Consider TFASTEGQY [TAL6 peptide No. 9 of Table 2, …], for which the Relative binding (%) was found to be 49.2%.

Regarding IVEWNVSLF [TAL6 peptide No. 13 of Table 2, …], the Relative binding (%) worked out at 41%.

As to EWNVSLFSI [TAL6 peptide No. 14 of Table 2, …], the Relative binding (%) is 74%.

HSLVGLALL [TAL6 peptide No. 2 of Table 2, …] had a Relative binding (%) of 61.7%.

KYASENHLS [TAL6 peptide No. 5 of Table 2, …]: the Relative binding (%) came out at 64.6%.

Take FFSGIVGGGL [TAL6 peptide No. 7 of Table 2, …]: the Relative binding (%) came out at 72.4%.

As for HIVEWNVSLF [TAL6 peptide No. 12 of Table 2, …], the Relative binding (%) worked out at 28%.

Take QYLLDTSTW [TAL6 peptide No. 11 of Table 2, …]: the Relative binding (%) amounted to 111%.

CYGKCARCI [TAL6 peptide No. 1 of Table 2, …] yielded a Relative binding (%) of 126%.

GGIEFILCLI [TAL6 peptide No. 17 of Table 2, …] registered a Relative binding (%) of 14.8%.

GGIEFILCL [TAL6 peptide No. 16 of Table 2, …] had a Relative binding (%) of 25.3%.

Turning to EWNVSLFSIL [TAL6 peptide No. 15 of Table 2, …], the Relative binding (%) was 22.2%.

In turn, TFASTEGQYL [TAL6 peptide No. 10 of Table 2, …] showed a Relative binding (%) of 116%.

Regarding LYFPNGETKY [TAL6 peptide No. 4 of Table 2, …], the Relative binding (%) came to 85%.

As for GYCVIVAAL [TAL6 peptide No. 8 of Table 2, …], the Relative binding (%) was 118%.

In turn, RFVWFFSGI [TAL6 peptide No. 6 of Table 2, …] registered a Relative binding (%) of 91.9%.
